Substitutions are numbered along the chain they refer to.
B1: MLC013: fusion polypeptide SEQ ID NO: 260 conjugated with Moiety A at 1K of Linker (conjugate)
chain: HGEGTFTSDVSSYLEEQAAREFIAWLVRGGGKQEPGAQPGQEPGAQPGQEPGAQPGQEPGAQPGQEPGAQPGQEPGAQPGAQPGAQPGAQPGAQPGAQPGAQPGAQPGAQPARQGDHCPLGPGRCCRLHTVRASLEDLGWADWVLSPREVQVTMCIGACPSQFRAANLHAQIKTSLHRLRPDTVPAPCCVPASYNPMVLIQRTDTGVSLQTYDDLLARDCHCI
modifications: Moiety A conjugated at linker K1
B2: MLC007: fusion polypeptide SEQ ID NO: 254 conjugated with Moiety A at 1K of Linker (conjugate)
chain: HGEGTFTSDVSSYLEEQAAREFIAWLVRGGGKQEPGQEPGQEPGQEPGQEPGQEPGQEPGQEPGAQPGAQPARQGDHCPLGPGRCCRLHTVRASLEDLGWADWVLSPREVQVTMCIGACPSQFRAANLHAQIKTSLHRLRPDTVPAPCCVPASYNPMVLIQRTDTGVSLQTYDDLLARDCHCI
modifications: Moiety A conjugated at linker K1
B3: MLC006: fusion polypeptide SEQ ID NO: 253 conjugated with Moiety A at 36K of GLP-1 (conjugate)
chain: B2 chain with G30K, K32G
modifications: Moiety A conjugated at K36
B4: MLC009: fusion polypeptide SEQ ID NO: 256 conjugated with Moiety A at 15K of Linker (conjugate)
chain: B2 chain with K32G, E46K
modifications: Moiety A conjugated at linker K15
B5: MLC005: fusion polypeptide SEQ ID NO: 252 conjugated with Moiety A at 12K of Linker (conjugate)
chain: B2 chain with K32G, P43K
modifications: Moiety A conjugated at linker K12
B6: MLC002: fusion polypeptide SEQ ID NO: 249 conjugated with Moiety A at 26K of GLP-1 (conjugate)
chain: B2 chain with R20K, K32G
modifications: Moiety A conjugated at K26
B7: MLC090: fusion polypeptide SEQ ID NO: 379 conjugated with Moiety C at 39C of Linker (conjugate)
chain: HGEGTFTSDVSSYLEEQAAKEFIAWLVRGGGGAQPGAQPGAQPGAQPGAQPGAQPGAQPGAQPGQEPGQCPGQEPGAQPGQEPGAQPGQEPGAQPGQEPGAQPGQEPGAQPARQGDHCPLGPGRCCRLHTVRASLEDLGWADWVLSPREVQVTMCIGACPSQFRAANLHAQIKTSLHRLKPDTVPAPCCVPASYNPMVLIQKTDTGVSLQTYDDLLAKDCHCI
modifications: Moiety C conjugated at linker Cys39

Key:
[1] = Efficacy in db/db mice: body weight, food intake, glucose, biomarkers, daily sc 14 days; format: in vivo
Description: (§1) FIGS. 4A-4D show In vivo efficacy in db/db mice. To evaluate the body weight, food intake and glucose effects of the fusion proteins, 8 week old male db/db mice were dosed everyday subcutaneously with 30 nmol/kg protein for 14 days. […] Compared to Vehicle control: ***, p<0.001. Data are expressed as mean values and standard error (SEM) for FIGS. 4A, 4B and 4D. n=5 for each treatment group. For FIG. 4C, a pooled food intake was measured for each treatment group.
FIGS. 5A-5F show In vivo efficacy in db/db mice. To evaluate the body weight, food intake and glucose effects of the fusion proteins, 8 week old male db/db mice were dosed everyday subcutaneously with different concentrations of proteins for 14 days. FIGS. 5A and 5B show body weight loss upon protein treatments from Day1 to Day15. […] Compared to Vehicle control: ***, p<0.001; **, p<0.01; *, p<0.05; ns, non-statistically significant; FIGS. 5D and 5E show cumulative food intake with protein treatments from Day1 to Day15. […] Compared to Vehicle control: ***, p<0.001**, p<0.01; *, p<0.05; ns, non-statistically significant. Data are expressed as mean values and standard error (SEM) for FIGS. 5A, 5B, 5C and 5F. n=5 for each treatment group. For FIGS. 5D and 5E, a pooled food intake was measured for each treatment group.
as §1, with “8A-8I” for “4A-4D”, “different concentrations of proteins” for “30 nmol/kg protein”, “FIGS. 8D-8F show body weight loss upon dose titrations of fusion protein conjugates. […]” for “Compared to Vehicle control: ***, p<0.001.”, “8A” for “4A, 4B”, “8C-I.” for “4D.”, “8B,” for “4C,”
Selected fusion protein conjugates are assessed in disease animal models (DIO mice, db/db mice, etc.) to determine body weight, food intake, glucose efficacy with dose responses. Some biomarkers are also measured, including fasting insulin, plasma triglyceride, cholesterol, liver triglyceride, and inflammatory biomarkers (ALT, AST and CRP).
8 week old male db/db mice were injected everyday subcutaneously with designated proteins for 14 days. Age matched lean mice were used as control. Food intake and body weight were measured daily and five animals were used for each treatment group. Fasting glucose were tested on designated days as shown in each figure. Body weight was monitored for each individual animal, but food intake for each group animals was measured together. Day 1 and Day 14 are first day and last day of molecule dosage. % BW loss=100*(BW on Day n-BW on Day 1)/(BW on Day 1). Cumulative food intake on Day n represents sum of food intake from Day 1 to Day n. Terminal blood was collected and EDTA-2K plasma was prepared and frozen at −80° C. for biomarker measurement. Liver was also collected and frozen in liquid nitrogen and store at −80° C. Data are indicated as mean values and standard error (SEM) or pooled values. Statistical analysis was performed by One-way ANOVA.

[2] = PK study in non-human primates, single sc dose 5 nmol/kg, plasma ELISA; conditions: monkey, single sc dose 5 nmol/kg; for Cmax: read-out: Cmax (nmol/L)
Description: Plasma samples were collected pre-dose (−5 min), 2 hr, 4 hr, 6 hr, 8 hr, 24 hr, 48 hr, 72 hr, 96 hr, 120 hr, 144 hr, 216 hr, 288 hr, 360 hr, 432 hr and 504 hr after the injection. The concentrations of the fusion protein conjugates in the plasma were measured by an ELISA assay which has immunoreactivity towards both GDF15 and intact N-terminal of GLP-1. Based on the graph showing plasma concentration of each protein versus time after subcutaneous injection, the pharmacokinetic parameters (including Tmax, Cmax, T1/2, AUC) were calculated by WinNonlin software.

[3] = Body weight and food intake in C57BL/6 mice, fusion protein conjugates, 30 nmol/kg daily 10 days; format: in vivo
Description: (§2) 10 week old male C57BL/6 mice were injected everyday subcutaneously with 15 nmol/kg of the fusion protein conjugates (i.e., MLC002, MLC 004, MLC 005, MLC 006, MLC 007, MLC 008, and MLC 009) for 14 days. Food intake and body weight were measured daily and five animals were used for each treatment group. Body weight (BW) was monitored for each individual animal, but food intake for each group animals was measured together. Day 1 and Day 14 are first day and last day of molecule dosage. % BW loss=100*(BW on Day n-BW on Day 1)/(BW on Day 1). Cumulative food intake on Day n represents sum of food intake from Day 1 to Day n. Data are indicated as mean values and standard error (SEM) or pooled values. Statistical analysis was performed by One-way ANOVA. Body weight reduction on Day 11 is calculated by −1*(% BW loss−% BW loss of vehicle group); Cumulative food intake reduction is calculated by −100*(cumulative food intake-cumulative food intake of vehicle)/cumulative food intake of vehicle.
Data were calculated in the same way as described above. Day 1 and Day 10 are first day and last day of the administration.
MLC014 was used as a negative control. MLC014 has an amino acid sequence of SEQ ID NO: 261, which contains a linker fused to the N terminal of GDF15, with a CRM conjugated to the lysine residue in the linker. Tirzepatide was also used as a control.

[4] = Pharmacokinetic measurement in mouse, single sc dose 30 nmol/kg, plasma ELISA; conditions: for Cmax: read-out: Cmax (nmol/L), single sc dose 30 nmol/kg; for AUC0-24 h / Terminal t1/2 / Tmax: single sc dose 30 nmol/kg
Description: Each fusion protein was injected subcutaneously into C57BL/6 mice (n=3/group) once and plasma samples were collected at designed time points and analyzed by ELISA method. Plasma concentrations are indicated as mean values and standard error (SEM).
6-8 week old male C57BL/6 mice were administrated in a single subcutaneous dose of 30 nmol/kg of the fusion protein conjugates or unconjugated fusion proteins (i.e., MLC002, MLC004, MLC005, MLC006, MLC007, MLC008, MLC009, MLC013, MLC017, MLC047, MLC074, MLC075, MLC089, MLC093, MLC003 and MLC019) (n=3/group). Plasma samples were collected pre-dose (−5 min), 0.5 hr, 1 hr, 2 hr, 4 hr, 6 hr, 8 hr, 12 hr, 24 hr, 48 hr and 72 hr after the injection. The concentrations of the fusion protein conjugates in the plasma were measured by an ELISA assay which has immunoreactivity towards both GDF15 and intact N-terminal of GLP-1. Based on the graph showing plasma concentration of each protein versus time after subcutaneous injection, the pharmacokinetic parameters (including Tmax, Cmax, T1/2, AUC) were calculated by WinNonlin software.

[5] = Body weight and food intake in lean C57BL/6 mice, lysine conjugated compounds, 15 nmol/kg daily sc 14 days; format: in vivo; conditions: for BW reduction: 15 nmol/kg daily sc 14 days, versus Semaglutide; for Body weight reduction at 15 nmol/kg (% reduction compared to vehicle)(Day11) / Cumulative food intake reduction at 15 nmol/kg (% reduction compared to vehicle)(Day11): C57 mice, 15 nmol/kg daily sc
Description: FIGS. 1A-1F show In vivo activities of fusion proteins. To evaluate the body weight and food intake effects of the fusion proteins, 10 week old male C57BL/6J mice were dosed everyday subcutaneously with 15 nmol/kg protein for 14 days. Food intake and body weight were measured daily. FIGS. 1A and 1B show body weight loss upon protein treatments from Day1 to Day15. […] FIGS. 1D and 1E show cumulative food intake with protein treatments from Day1 to Day15. […] Vehicle: 1.42 mg/mL disodium phosphate dihydrate, 14 mg/mL propylene glycol pH7.4. Data are expressed as mean values and standard error (SEM) for FIGS. 1A, 1B and 1C. n=5 for each treatment group. For FIGS. 1D, 1E and 1F, a pooled food intake was measured for each treatment group.
as §2

[6] = 30 nmol/kg daily 14 days, FIG. 4, versus Semaglutide
[7] = 30 nmol/kg, FIG. 5A-E, versus Semaglutide, Tirzepatide and MLC014
[8] = 30 nmol/kg, FIG. 8A-C, versus Semaglutide, Tirzepatide and MLC014

Molecule | Cmax [4] | AUC0-24 h [4] | Terminal t1/2 [4] | Tmax [4] | Body weight reduction at 15 nmol/kg (% reduction compared to vehicle)(Day11) [5] | Cumulative food intake reduction at 15 nmol/kg (% reduction compared to vehicle)(Day11) [5] | other results
B1 | 38.5 nmol/L | 503.5 nM·h | 8.9 h | 3.3 h | – | – | body weight loss [1, 6]: sustainable and much better effect; food intake suppression [1, 6]: sustainable and much better effect; glucose lowering effect ([1]; 30 nmol/kg daily 14 days, FIG. 4D): comparable glucose lowering effect to Semaglutide; body weight loss [1, 7]: sustainable and much better effect; food intake suppression [1, 7]: sustainable and much better effect; efficacy ([1]; FIG. 5 study): better efficacy than Semaglutide and GDF15 derivative (MLC014); AUC0-96 h [2]: 1435 nM·h; Terminal t1/2 [2]: 26 h; Tmax [2]: 7 h; Cmax [2]: 41.3 nmol/L; Body weight reduction at 30 nmol/kg (% reduction compared to vehicle)(Day11) [3]: 21.4%; Cumulative food intake reduction at 30 nmol/kg (% reduction compared to vehicle)(Day11) [3]: 45.2%
B2 | 10.4 nmol/L | 63.8 nM·h | 4.7 h | 0.5 h | 11.3% | 21.8% | BW reduction [5]: statistically significantly enhanced BW loss efficacy than Semaglutide
B3 | 9.9 nmol/L | 71.9 nM·h | 4.4 h | 2.7 h | 9.3% | 23.0% | –
B4 | 17 nmol/L | 157.8 nM·h | 4.2 h | 3.3 h | 14.6% | 23.9% | BW reduction [5]: statistically significantly enhanced BW loss efficacy than Semaglutide
B5 | 16.7 nmol/L | 117.2 nM·h | 4.2 h | 2.0 h | 12.6% | 9.1% | –
B6 | 4.6 nmol/L | 36.2 nM·h | 5.0 h | 1.2 h | 5.0% | 7.5% | –
B7 | – | – | – | – | – | – | body weight loss [1, 8]: more body weight loss, food intake suppression and glycemic control; food intake suppression [1, 8]: more body weight loss, food intake suppression and glycemic control; glycemic control [1, 8]: more body weight loss, food intake suppression and glycemic control; efficacy ([1]; FIG. 8 study): better efficacy than Semaglutide and GDF15 derivative (MLC014); AUC0-96 h [2]: 1987 nM·h; Terminal t1/2 [2]: 40 h; Tmax [2]: 7 h; Cmax [2]: 36 nmol/L; Body weight reduction at 30 nmol/kg (% reduction compared to vehicle)(Day11) [3]: 24.5%; Cumulative food intake reduction at 30 nmol/kg (% reduction compared to vehicle)(Day11) [3]: 44.4%

— US11453711B2, “Fusion proteins of GLP-1 and GDF15 and conjugates thereof” (BEIJING QL BIOPHARMACEUTICAL CO., LTD., priority 2019, dated 2022)
